From IntAct's records for PubMed 17213653 come the findings set out here.

B1: Protein RCR1 (Saccharomyces cerevisiae), P38212 (parent)
chain: MGLISYENEAINEVKKADNHHVSKFVTSYYGPSSSSWQSGIWILFVLFVAAVILIILFTFVANRRRRRMGRAPIRGTAWLTPPSYRQSQQQYTGTVQQRTDDYVPEYTETANEHDLGYYDQRGEFHPNDKAAYVAPPPLVQECSSESVNSLERPPAAVVHQANSLDTDYGLTRPSNGRVPAVSDTVEQLERLPGGTTTQEINPPERAKVNARS
partner: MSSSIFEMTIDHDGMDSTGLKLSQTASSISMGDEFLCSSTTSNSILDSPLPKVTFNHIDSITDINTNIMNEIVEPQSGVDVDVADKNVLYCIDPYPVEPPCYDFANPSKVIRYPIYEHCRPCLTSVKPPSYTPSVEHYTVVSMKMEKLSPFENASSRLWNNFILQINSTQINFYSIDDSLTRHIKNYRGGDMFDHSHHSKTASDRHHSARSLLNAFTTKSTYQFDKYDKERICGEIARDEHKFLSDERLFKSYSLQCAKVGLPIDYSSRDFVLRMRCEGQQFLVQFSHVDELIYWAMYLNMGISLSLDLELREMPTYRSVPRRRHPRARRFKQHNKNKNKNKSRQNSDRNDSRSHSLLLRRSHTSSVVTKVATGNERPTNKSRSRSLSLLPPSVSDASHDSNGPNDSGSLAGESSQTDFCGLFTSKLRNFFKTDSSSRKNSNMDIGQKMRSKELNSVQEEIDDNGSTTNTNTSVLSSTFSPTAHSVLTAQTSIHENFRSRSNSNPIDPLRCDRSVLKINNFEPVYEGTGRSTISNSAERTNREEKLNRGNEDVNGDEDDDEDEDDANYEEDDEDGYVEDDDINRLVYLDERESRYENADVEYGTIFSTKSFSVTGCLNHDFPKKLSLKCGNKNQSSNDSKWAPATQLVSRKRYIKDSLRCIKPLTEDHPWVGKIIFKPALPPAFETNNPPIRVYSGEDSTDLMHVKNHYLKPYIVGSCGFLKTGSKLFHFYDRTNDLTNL
B2: Protein RCR1 (Saccharomyces cerevisiae), P38212 (parent)
chain: B1 chain

In the first test the parent is B1. Particulars: with yno4_yeast yno4, P53907.
Regarding P82Q;P83A, the “effect of a mutation on the interaction” value is reported as “disrupting interaction”.

The variants in a further test derive from B2. Particulars: with rsp5_yeast RSP5, P39940.
Sequence of rsp5_yeast RSP5, P39940 (P39940 whole entry): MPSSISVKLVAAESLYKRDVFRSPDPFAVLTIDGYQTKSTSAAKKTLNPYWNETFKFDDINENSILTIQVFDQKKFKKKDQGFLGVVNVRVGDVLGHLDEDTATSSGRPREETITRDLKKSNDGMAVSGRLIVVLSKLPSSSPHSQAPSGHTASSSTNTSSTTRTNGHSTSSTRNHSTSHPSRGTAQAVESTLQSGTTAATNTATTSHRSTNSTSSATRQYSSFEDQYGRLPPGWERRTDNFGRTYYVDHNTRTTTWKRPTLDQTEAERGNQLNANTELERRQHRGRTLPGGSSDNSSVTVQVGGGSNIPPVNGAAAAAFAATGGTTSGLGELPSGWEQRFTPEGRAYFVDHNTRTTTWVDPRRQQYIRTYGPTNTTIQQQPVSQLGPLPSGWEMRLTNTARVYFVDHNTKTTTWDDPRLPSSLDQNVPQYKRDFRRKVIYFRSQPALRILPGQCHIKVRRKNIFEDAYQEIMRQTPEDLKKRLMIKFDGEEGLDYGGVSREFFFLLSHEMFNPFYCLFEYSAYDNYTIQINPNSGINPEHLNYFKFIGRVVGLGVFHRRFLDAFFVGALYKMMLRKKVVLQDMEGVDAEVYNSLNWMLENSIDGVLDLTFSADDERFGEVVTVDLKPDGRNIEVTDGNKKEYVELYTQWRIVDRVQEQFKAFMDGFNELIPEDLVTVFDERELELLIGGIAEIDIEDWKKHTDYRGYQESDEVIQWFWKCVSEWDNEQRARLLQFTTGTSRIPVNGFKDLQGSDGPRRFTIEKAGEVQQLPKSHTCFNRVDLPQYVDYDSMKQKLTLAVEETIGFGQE
On to P105A, for which the “effect of a mutation on the interaction” value is listed as “disrupting interaction”.

Regarding P82Q;P83A, the “effect of a mutation on the interaction” value is given as “decreasing interaction”.

The variants in the next test derive from B2. Particulars: with rsp5_yeast RSP5, P39940. The source holds these as a separate data set.
For the variant P105A, the “effect of a mutation on the interaction” value is reported as “decreasing interaction”.

Turning to P82Q;P83A;P105A, the “effect of a mutation on the interaction” value is “disrupting interaction”.
